Assay results taken from article PMC6336407.

What was measured:
[1] = target: IRE1 KR with N-terminal 6× His-tag (human); experiment: BLI; His-tagged IRE1 KR coupled to Ni-NTA biosensors; 80S or 60S at 5 to 500 nM in solution; 25°C, 25 mM HEPES pH 7.4, 150 mM KCl, 5 mM MgCl2, 250 µM TCEP; OCTET RED384
[2] = target: IRE1-KR43 labeled with RED dye (human); experiment: MST; 100 nM IRE1-KR43 labeled with RED dye incubated with 80S at various concentrations for 30 min at 25°C; Monolith NT.115, 20% LED power, 40% IR-laser

**Q.** What does the source list for purified 80S ribosomes (complex)?
**A.** Kd [1]: 33.4 nM; koff [1]: 0.0598 s⁻¹; kon [1]: 1.81e+06 M⁻¹ s⁻¹; Kd [2]: 30 nM
